Test results taken from US20090291083A1, “BARB4 TARGET, ANTIBODY DESIGNATED BARB4, BARB4 RELATED ANTIBODIES, AND METHODS OF MAKING AND USING SAME” (PATRYS LIMITED, priority 2008, published 2009).

Tests used:
[1] = test system: Healthy Tissues: Breast; assay: Immunohistochemistry (IHC) with biotinylated BARB4 on healthy tissue; format: binding, human; conditions: glandular, positive/negative
Description: (§1) Immunohistochemistry with human IgG on human tissue naturally results in high background staining. Accordingly, BARB4 was labeled with biotin to reduce background.
(§2) BARB4 antibody and an unrelated commercial IgG control (Chrompure IgG, Dianova) where labelled with “EZ-Link Maleimide-PEO Solid Phase Biotinylation Kit” from Pierce (Cat-# 21930) and Immunohistochemistry was initiated on different tumor tissue. Parrafin embedded tissue was first deparaffinized by treatment with Xylene 1 for 5 min, Xylene 2 for 5 min, followed by 100% Ethanol 1 for 5 min, 100% Ethanol 2 for 5 min, 70 ml Methanol+500 μl H2O2 for 7 min, 90% Ethanol 1 for 3 min, 90% Ethanol 2 for 3 min, 80% Ethanol 1 for 3 min, 80% Ethanol 2 for 3 min, 70% Ethanol 1 for 3 min, 70% Ethanol 2 for 3 min, and then washed three times with distilled H2O. (1 and 2 mean that the tissues were treated 2 times with the same alcohol, one after the another, in two different tanks.) Tissue was then heated in Citric acid, pH 5,5 in a water-bath at 99.9° C. for 20 min, placed in Tris/NaCl (Tris, 0.6 g/l and NaCl 8.1 g/l, pH 7.4) for 5 min, block with 0.5% BSA in PBS for 60 min, and then washed three times with Tris/NaCl (Tris, 0.6 g/l and NaCl 8.1 g/l, pH 7.4). Primary antibody (150 μl per microscope slide) was added, or a negative control biotinylated isotype matched control human antibody (Chrompure IgG, Dianova, Germany) or a positive controlanti-cytokeratin antibody, and incubated for 30 min in a humidified chamber at 37° C. Tissue was washed three times with Tris/NaCl (Tris, 0.6 g/l and NaCl 8.1 g/l, pH 7.4). Secondary antibody: (150 […]) was subsequently added and incubated for 30 min in a humidified chamber at room temperature (for biotinylated antibodies: NeurtrAvidin 1:100 in PBS), washed three times with Tris/NaCl (Tris, 0.6 g/l and NaCl 8.1 g/l, pH7.4), placed in PBS for 10 min. Tiusse was subsequently incubated with diaminobenzidine (0.05%)-hydrogen peroxide (0.02%) (150 μl per microscope slide) (Sigma, Taufkirchen, München, Germany) for 10 min, washed three times with H2O, washed once with distilled H2O, incubated with hematoxylin/eosin for 5 min, and placed under running tap water 10-15 min. Tissue was then washed again with distilled H2O, and the slides covered with Aquatex (Merck Bioscience).

[2] = test system: Healthy Tissues: Colon; assay: as above; format: binding, human; conditions: glandular, positive/negative
Description: as §1, §2

[3] = test system: Healthy Tissues: Esophagus; assay: as above; format: binding, human; conditions: epithelial, positive/negative
Description: as §1, §2

[4] = test system: Healthy Tissues: Lung; assay: as above; format: binding, human; conditions: glandular, alveolar, positive/negative
Description: as §1, §2

[5] = test system: Healthy Tissues: Pancreas; assay: as above; format: binding, human; conditions: glandular, positive/negative
Description: as §1, §2

[6] = test system: Healthy Tissues: Stomach; assay: as above; format: binding, human; conditions: glandular, positive/negative
Description: as §1, §2

[7] = test system: HEK 293; assay: FACS analysis of cell surface binding, BARB4 and commercial TAF 15 antibody; conditions: BARB4 100 ug/ml, TAF 15 antibody 25 μg/ml
Description: (§3) To further validate BARB4 target protein TAF 15, BARB4 and a commercial TAF 15 antibody (anti-human TAFII p68, Santa Cruz Biotechnology, sc-81121) were analyzed for binding to BxPC-3, HEK 293, A549 and HeLa cell lines. In brief, cells were trypsinized with cell dissociation solution (Sigma C5789), resuspended in complete medium (RPMI 1640, PAA, E15-039, 10% Fetal bovine serum, PAA, A15-151 and 1% Glutamine, PAA, M11-004) and set on 2×10^5/ml. After 30 minutes on ice, cells were dispersed at 1 ml per FACS-tube and washed once with ice-cold PBS by centrifugation with 500 g and 4° C. Staining was done with BARB4 (100 ug/ml) or the commercial TAF 15 (25 μg/ml) IgG antibodies, control IgGs (IgG lambda, or mouse IgG), or without antibody in 200 μl PBS. Cells were incubated with 25 μg/ml antibody in 100 μl for 30 minutes on ice, then washed with ice cold PBS and secondary antibody (anti mouse IgG-FITC, dianova 115-095-008) was applied at a dilution of 1:50 in 200 μl per tube. After another 30 minutes of incubation in the dark, cells were washed twice with PBS and analyzed by FACS. […] BARB4 target protein TAF 15 validation was then analyzed by immunoprecipitation of MKNcell extracts with BARB4 and subsequent Western blotting with either BARB4 or anti-TAF 15 antibodies (Biomol, A300-308A; or Aviva, ARP30111_T100).

[8] = test system: HeLa; assay: as above; conditions: BARB4 100 ug/ml, TAF 15 antibody 25 μg/ml
Description: as §3

B1: BARB4: human IgG antibody produced by hybridoma DSMZ Deposit No. DSM ACC2876; heavy chain SEQ ID NOs:1, 3, 5, 7, light chain SEQ ID NO:9 (antibody, V domains shown)
VH: QVQLVESGGGVVQPGRSLRLSCAASGFRFTTHGMHWVRQAPGKGLEWVAVISYNGRNKYYADYVNGRFTISRDDSRDTVFLQMNSLRPEDTAMYYCAKVRGDGYGDYGYFDYWGHGTLVSVSS
VL: QSALTQPRSVSGSPGQSVTISCTGTYNYVSWYQQHPGKAPKLMIFDVSRRSSGVPDRFSGSKSGNTASLTISGLQAEDEADYYCCSYGGTYLYVFGTGTTVTVLGQ
[1]
  Barb 4 +/−: 0/2
[2]
  Barb 4 +/−: 0/3
[3]
  Barb 4 +/−: 0/1
[4]
  Barb 4 +/−: 0/3
[5]
  Barb 4 +/−: 0/2
[6]
  Barb 4 +/−: 0/3
[7]
  FACS binding to the cell surface: binding
[8]
  FACS binding to the cell surface: binding
